This note sets out measurements from the supplement of paper PMC5998384.

The test system of series [1] is HeLa Kyoto. The series can be described thus: solubility in G1/S (NP-40 vs SDS abundance) (log2 ratio); higher = more soluble. Conditions: cell cycle stage: G1/S.
The subject of series [2] is HeLa Kyoto. The series can be described thus: thermal stability score vs G1/S (z-score of summed log2 fold changes over temperatures); higher = more thermally stable than in G1/S.
The test system of series [3] is HeLa Kyoto. The series can be described thus: melting temperature (median over replicates), in situ; higher = more thermally stable.
Series [4] concerns HeLa Kyoto. Description: solubility change mitosis vs G1/S (difference of NP-40 vs SDS log2 ratios) (log2 ratio difference); higher = more soluble in mitosis.
Setting [5] is: cell cycle stage: early G1 (4.5 h after nocodazole release).
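For melting temperature (median over replicates), in situ in this document: HeLa Kyoto cells synchronized by double thymidine or nocodazole block, proteins quantified by TMT10plex mass spectrometry, three independent biological replicates.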
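For solubility change mitosis vs G1/S (difference of NP-40 vs SDS log2 ratios) in this document: synchronized HeLa Kyoto cells (double thymidine block for G1/S, nocodazole release for mitosis), protein amounts in NP-40 versus SDS lysates quantified by mass spectrometry, three biological replicates.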
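For solubility in G1/S (NP-40 vs SDS abundance) in this document: HeLa Kyoto cells arrested at G1/S by double thymidine block, proteins quantified by TMT10plex mass spectrometry in mild NP-40 versus SDS extracts, three biological replicates.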
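For thermal stability score vs G1/S (z-score of summed log2 fold changes over temperatures) in this document: synchronized HeLa Kyoto cells, proteins quantified by TMT10plex mass spectrometry, three biological replicates, mitosis taken 0.5 h after nocodazole release, G1/S directly after double thymidine block.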

As for “MSEAGGRGCGSPVPQRARWRLVAATAAFCLVSATSVWTAGAEPMSREEKQKLGNQVLEMFDHAYGNYMEHAYPADELMPLTCRGRVRGQEPSRGDVDDALGKFSLTLIDSLDTLVVLNKTKEFEDAVRKVLRDVNLDNDVVVSVFETNIRVLGGLLGGHSLAIMLKEKGEYMQWYNDELLQMAKQLGYKLLPAFNTTSGLPYPRINLKFGIRKPEARTGTETDTCTACAGTLILEFAALSRFTGATIFEEYARKALDFLWEKRQRSSNLVGVTINIHTGDWVRKDSGVGAGIDSYYEYLLKAYVLLGDDSFLERFNTHYDAIMRYISQPPLLLDVHIHKPMLNARTWMDALLAFFPGLQVLKGDIRPAIETHEMLYQVIKKHNFLPEAFTTDFRVHWAQHPLRPEFAESTYFLYKATGDPYYLEVGKTLIENLNKYARVPCGFAAMKDVRTGSHEDRMDSFFLAEMFKYLYLLFADKEDIIFDIEDYIFTTEAHLLPLWLSTTNQSISKKNTTSEYTELDDSNFDWTCPNTQILFPNDPLYAQSIREPLKNVVDKSCPRGIIRVEESFRSGAKPPLRARDFMATNPEHLEILKKMGVSLIHLKDGRVQLVQHAIQAASSIDAEDGLRFMQEMIELSSQQQKEQQLPPRAVQIVSHPFFGRVVLTAGPAQFGLDLSKHKETRGFVASSKPSNGCSELTNPEAVMGKIALIQRGQCMFAEKARNIQNAGAIGGIVIDDNEGSSSDTAPLFQMAGDGKDTDDIKIPMLFLFSKEGSIILDAIREYEEVEVLLSDKAKDRDPEMENEEQPSSENDSQNQSGEQISSSSQEVDLVDQESSEENSLNSHPESLSLADMDNAASISPSEQTSNPTENHETTNLNGECTDLDNQLQEQSETEEDSNPNVSWGKKVQPIDSILADWNEDIEAFEMMEKDEL [EDEM3]”, in the series on HeLa Kyoto [1], the “solubility in G1/S (log2)” value amounted to 0.311. The thermal stability score was found to be 0.67 in the series with HeLa Kyoto [2] (setting [5]) and 0.929 with HeLa Kyoto [2] (cell cycle stage: mitosis). Besides, the melting temperature is 53.5 °C in the series on HeLa Kyoto [3] (cell cycle stage: G1/S) and 53.7 °C in the series with HeLa Kyoto [3] (cell cycle stage: mitosis). For the same sequence, the “solubility change mitosis (log2)” value in the series on HeLa Kyoto [4] was -0.156.
For the sequence “MSEAPRFFVGPEDTEINPGNYRHFFHHADEDDEEEDDSPPERQIVVGICSMAKKSKSKPMKEILERISLFKYITVVVFEEEVILNEPVENWPLCDCLISFHSKGFPLDKAVAYAKLRNPFVINDLNMQYLIQDRREVYSILQAEGILLPRYAILNRDPNNPKECNLIEGEDHVEVNGEVFQKPFVEKPVSAEDHNVYIYYPTSAGGGSQRLFRKIGSRSSVYSPESNVRKTGSYIYEEFMPTDGTDVKVYTVGPDYAHAEARKSPALDGKVERDSEGKEVRYPVILNAREKLIAWKVCLAFKQTVCGFDLLRANGQSYVCDVNGFSFVKNSMKYYDDCAKILGNIVMRELAPQFHIPWSIPLEAEDIPIVPTTSGTMMELRCVIAVIRHGDRTPKQKMKMEVRHQKFFDLFEKCDGYKSGKLKLKKPKQLQEVLDIARQLLMELGQNNDSEIEENKPKLEQLKTVLEMYGHFSGINRKVQLTYLPHGCPKTSSEEEDSRREEPSLLLVLKWGGELTPAGRVQAEELGRAFRCMYPGGQGDYAGFPGCGLLRLHSTYRHDLKIYASDEGRVQMTAAAFAKGLLALEGELTPILVQMVKSANMNGLLDSDSDSLSSCQQRVKARLHEILQKDRDFTAEDYEKLTPSGSISLIKSMHLIKNPVKTCDKVYSLIQSLTSQIRHRMEDPKSSDIQLYHSETLELMLRRWSKLEKDFKTKNGRYDISKIPDIYDCIKYDVQHNGSLKLENTMELYRLSKALADIVIPQEYGITKAEKLEIAKGYCTPLVRKIRSDLQRTQDDDTVNKLHPVYSRGVLSPERHVRTRLYFTSESHVHSLLSILRYGALCNESKDEQWKRAMDYLNVVNELNYMTQIVIMLYEDPNKDLSSEERFHVELHFSPGAKGCEEDKNLPSGYGYRPASRENEGRRPFKIDNDDEPHTSKRDEVDRAVILFKPMVSEPIHIHRKSPLPRSRKTATNDEESPLSVSSPEGTGTWLHYTSGVGTGRRRRRSGEQITSSPVSPKSLAFTSSIFGSWQQVVSENANYLRTPRTLVEQKQNPTVGSHCAGLFSTSVLGGSSSAPNLQDYARTHRKKLTSSGCIDDATRGSAVKRFSISFARHPTNGFELYSMVPSICPLETLHNALSLKQVDEFLASIASPSSDVPRKTAEISSTALRSSPIMRKKVSLNTYTPAKILPTPPATLKSTKASSKPATSGPSSAVVPNTSSRKKNITSKTETHEHKKNTGKKK [PPIP5K2]”, the “solubility in G1/S (log2)” value with HeLa Kyoto [1] amounted to 0.0594. Also, the thermal stability score amounted to 0.0139 with HeLa Kyoto [2] (setting [5]) and 0.108 with HeLa Kyoto [2] (cell cycle stage: mitosis). The melting temperature in the series on HeLa Kyoto [3] (cell cycle stage: G1/S) worked out at 52.5 °C; with HeLa Kyoto [3] (cell cycle stage: mitosis), 52.6 °C. Besides, the “solubility change mitosis (log2)” value in the series on HeLa Kyoto [4] was -0.068.
As to “MSEASSEDLVPPLEAGAAPYREEEEAAKKKKEKKKKSKGLANVFCVFTKGKKKKGQPSSAEPEDAAGSRQGLDGPPPTVEELKAALERGQLEAARPLLALERELAAAAAAGGVSEEELVRRQSKVEALYELLRDQVLGVLRRPLEAPPERLRQALAVVAEQEREDRQAAAAGPGTSGLAATRPRRWLQLWRRGVAEAAEERMGQRPAAGAEVPESVFLHLGRTMKEDLEAVVERLKPLFPAEFGVVAAYAESYHQHFAAHLAAVAQFELCERDTYMLLLWVQNLYPNDIINSPKLVGELQGMGLGSLLPPRQIRLLEATFLSSEAANVRELMDRALELEARRWAEDVPPQRLDGHCHSELAIDIIQITSQAQAKAESITLDLGSQIKRVLLVELPAFLRSYQRAFNEFLERGKQLTNYRANVIANINNCLSFRMSMEQNWQVPQDTLSLLLGPLGELKSHGFDTLLQNLHEDLKPLFKRFTHTRWAAPVETLENIIATVDTRLPEFSELQGCFREELMEALHLHLVKEYIIQLSKGRLVLKTAEQQQQLAGYILANADTIQHFCTQHGSPATWLQPALPTLAEIIRLQDPSAIKIEVATYATCYPDFSKGHLSAILAIKGNLSNSEVKRIRSILDVSMGAQEPSRPLFSLIKVG [TNFAIP2]”, in the series on HeLa Kyoto [1], the “solubility in G1/S (log2)” value was 0.296. Besides, the thermal stability score came out at 0.545 in the series on HeLa Kyoto [2] (setting [5]) and 1.06 in the series on HeLa Kyoto [2] (cell cycle stage: mitosis). In addition, the melting temperature was found to be 50.4 °C in the series with HeLa Kyoto [3] (cell cycle stage: G1/S) and 48.2 °C in the series on HeLa Kyoto [3] (cell cycle stage: mitosis). The “solubility change mitosis (log2)” value in the series with HeLa Kyoto [4] was -0.0517.
“MSEEQFGGDGAAAAATAAVGGSAGEQEGAMVAATQGAAAAAGSGAGTGGGTASGGTEGGSAESEGAKIDASKNEEDEGHSNSSPRHSEAATAQREEWKMFIGGLSWDTTKKDLKDYFSKFGEVVDCTLKLDPITGRSRGFGFVLFKESESVDKVMDQKEHKLNGKVIDPKRAKAMKTKEPVKKIFVGGLSPDTPEEKIREYFGGFGEVESIELPMDNKTNKRRGFCFITFKEEEPVKKIMEKKYHNVGLSKCEIKVAMSKEQYQQQQQWGSRGGFAGRARGRGGGPSQNWNQGYSNYWNQGYGNYGYNSQGYGGYGGYDYTGYNNYYGYGDYSNQQSGYGKVSRRGGHQNSYKPY [HNRNPD]”: the “solubility in G1/S (log2)” value with HeLa Kyoto [1] was 0.068. Also, the results for the thermal stability score in the series with HeLa Kyoto [2] (setting [5]) and in the series with HeLa Kyoto [2] (cell cycle stage: mitosis) were -3.11 and -2.98, respectively. Moreover, the results for the melting temperature with HeLa Kyoto [3] (cell cycle stage: G1/S) and in the series on HeLa Kyoto [3] (cell cycle stage: mitosis) were 55.6 °C and 54.9 °C, respectively. For the same sequence, the “solubility change mitosis (log2)” value in the series on HeLa Kyoto [4] stood at 0.191.
